{
  "source": "paper PMC5792436",
  "about": "“TT(N)mGCCTC inhibits archaeal family B DNA polymerases”",
  "key": {"[1]": {"biological_target": "Taq DNA polymerase (Fig. 4A) (UniProt P19821 1-832)", "sequence (P19821 whole entry)": "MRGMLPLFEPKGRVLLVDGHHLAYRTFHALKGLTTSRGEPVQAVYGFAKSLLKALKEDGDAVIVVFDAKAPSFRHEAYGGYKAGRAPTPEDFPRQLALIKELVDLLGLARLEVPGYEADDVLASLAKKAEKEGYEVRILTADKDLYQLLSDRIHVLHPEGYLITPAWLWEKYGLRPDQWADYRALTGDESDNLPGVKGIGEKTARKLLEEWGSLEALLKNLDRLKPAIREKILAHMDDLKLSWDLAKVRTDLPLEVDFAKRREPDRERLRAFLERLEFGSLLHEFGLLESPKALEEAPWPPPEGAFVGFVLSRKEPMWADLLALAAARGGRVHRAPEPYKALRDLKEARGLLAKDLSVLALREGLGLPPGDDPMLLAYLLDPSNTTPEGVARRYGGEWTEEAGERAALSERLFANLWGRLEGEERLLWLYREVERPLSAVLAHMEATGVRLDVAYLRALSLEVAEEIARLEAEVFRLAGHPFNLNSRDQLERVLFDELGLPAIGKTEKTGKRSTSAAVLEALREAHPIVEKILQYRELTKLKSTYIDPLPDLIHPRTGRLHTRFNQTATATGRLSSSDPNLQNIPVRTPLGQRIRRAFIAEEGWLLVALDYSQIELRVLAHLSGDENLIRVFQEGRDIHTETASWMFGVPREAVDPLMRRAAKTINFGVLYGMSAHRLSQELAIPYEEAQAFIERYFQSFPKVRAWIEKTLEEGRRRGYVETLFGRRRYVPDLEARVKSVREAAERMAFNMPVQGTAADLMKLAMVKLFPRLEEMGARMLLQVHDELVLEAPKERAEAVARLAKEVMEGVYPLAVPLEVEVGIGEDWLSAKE", "assay": "EMSA; no Mg2+; 10 mM Tris-HCl pH 7.9, 50 mM KCl, 1 mM EDTA, 5% glycerol, 1 mM DTT, 25 ug/ml BSA; no MgCl2, no poly(dI-dC); 20 min at room temperature; 6% PAGE in 0.5X TBE", "details": "protein: commercial; label: 5' biotin"}, "[2]": {"biological_target": "T1, KOD DNA polymerase, purified (pET22b-KOD) (UniProt D0VWU9 1-774)", "T1 sequence": "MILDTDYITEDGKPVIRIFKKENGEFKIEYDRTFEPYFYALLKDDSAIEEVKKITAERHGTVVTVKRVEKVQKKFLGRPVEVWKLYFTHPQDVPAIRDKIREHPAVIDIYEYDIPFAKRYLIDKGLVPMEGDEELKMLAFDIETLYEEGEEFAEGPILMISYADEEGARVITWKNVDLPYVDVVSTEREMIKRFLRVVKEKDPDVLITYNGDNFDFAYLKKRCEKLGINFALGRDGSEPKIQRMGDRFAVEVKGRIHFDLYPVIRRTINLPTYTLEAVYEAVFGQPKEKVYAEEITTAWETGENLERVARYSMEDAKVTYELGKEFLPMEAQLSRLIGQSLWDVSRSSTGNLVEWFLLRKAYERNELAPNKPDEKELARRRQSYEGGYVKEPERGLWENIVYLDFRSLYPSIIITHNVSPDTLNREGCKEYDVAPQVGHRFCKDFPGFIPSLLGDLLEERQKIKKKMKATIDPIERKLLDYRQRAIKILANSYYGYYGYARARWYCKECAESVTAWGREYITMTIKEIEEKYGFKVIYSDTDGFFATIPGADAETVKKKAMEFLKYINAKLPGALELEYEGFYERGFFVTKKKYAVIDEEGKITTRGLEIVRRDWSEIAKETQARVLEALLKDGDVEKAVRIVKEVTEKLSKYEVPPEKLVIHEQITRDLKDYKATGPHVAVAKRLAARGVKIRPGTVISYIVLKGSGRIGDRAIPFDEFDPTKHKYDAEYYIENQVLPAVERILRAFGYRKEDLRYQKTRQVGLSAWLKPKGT", "assay": "EMSA; 2 nM DNA, no Mg2+; 10 mM Tris-HCl pH 7.9, 50 mM KCl, 1 mM EDTA, 5% glycerol, 1 mM DTT, 25 ug/ml BSA; no MgCl2, no poly(dI-dC); 20 min at room temperature; 6% PAGE in 0.5X TBE", "details": "protein: recombinant; tags: His; label: 5' biotin"}},
  "data": [
    {"binder": "TACCGAGCTCTTACGCGTGCCTCTGACTTGCCTCAGAGC (ssDNA)", "note": "[Bio-Olig2.5]", "values": [
      {"measurement": "binding result", "setting": "[1]", "result": "no binding"},
      {"measurement": "Kd", "setting": "[2]", "result": "~40", "unit": "nM"}
    ]}
  ]
}
